Measured values taken from the supplement of paper PMC7877785.
± gives the uncertainty stated by the source.

Assay: self-splicing fitness, log relative to wild type (ln ratio); higher = more splicing; Tetrahymena group I intron in knt gene, E. coli kanamycin selection, DiMSum; sequences stand for … in CUCUCU…GGAGGGAAAAGUUAUCAGGCAUGCACCUGGUAGCUAGUCUUUAAACCAAUAGAUUGCAUCGGUUUAAAAGGCAAGACCGUCAAAUUGCGGGAAAGGGGUCAACAGCCGUUCAGUACCAAGUCUCAGGGGAAACUUUGAGAUGGCCUUGCAAAGGGUAUGGUAAUAAGCUGACGGACAUGGUCCUAACCACGCAGCCAAGUCCUAAGUCAACAGAUCUUCUGUUGAUAUGGAUGCAGUUCACAGACUAAAUGUCGGUCGGGGAAGAUGUAUUCUUCUCAUAAGAUAUAGUCGGACCUCUCCUUAAUGGGAGCUAGCGGAUGAAGUGAUGCAACACUGGAGCCGCUGGGAACUAAUUUGUAUGCGAAAGUAUAUUGAUUAGUUUUGGAGUACUCGUGGUCG
Method in brief: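 A randomised library covering all eight P1ex-region intron nucleotides was built with the intron in the knt kanamycin-resistance gene on pET-22b(+) and held in E. coli BL21(DE3). Cells were grown overnight at 37°C or 30°C on LB agar, with or without 25 μg/mL kanamycin, plus 100 μg/mL carbenicillin, 50 μM IPTG and 0.2% rhamnose, and pooled colonies were amplicon-sequenced on an Illumina HiSeq 2500. DiMSum fitness is the error-weighted combination of wild-type-normalised replicate fold changes, kanamycin versus none.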

Row | Sequence | self-splicing fitness (ln) (30 °C) | self-splicing fitness (ln) (37 °C)
1 | UUGCAGCAAUAUUACGCGCC | -2.28 ± 0.44 | 
2 | UUGCAGCAAUAUUACGCGGG | -4.61 ± 0.39 | -2.03 ± 0.21
3 | UUGCAGCAAUAUUACGCUGC | -3.93 ± 0.29 | -2.97 ± 0.38
4 | UUGCAGCAAUAUUACGCUUU | -2.64 ± 0.12 | -2.11 ± 0.15
5 | UUGCAGCAAUAUUACGGACC | -2.34 ± 0.27 | -2 ± 0.26
6 | UUGCAGCAAUAUUACGGCCU | -1.03 ± 0.095 | -0.864 ± 0.18
7 | UUGCAGCAAUAUUACGGUAU | -1.86 ± 0.11 | -1.63 ± 0.14
8 | UUGCAGCAAUAUUACGGUGU | -4.16 ± 0.21 | -2.72 ± 0.18
9 | UUGCAGCAAUAUUACGUAUC | -3.83 ± 0.16 | -2.4 ± 0.15
10 | UUGCAGCAAUAUUACGUAUU | -2.57 ± 0.14 | -1.43 ± 0.15
11 | UUGCAGCAAUAUUACGUCGC | -3.09 ± 0.28 | -2.16 ± 0.35
12 | UUGCAGCAAUAUUACGUCGG | -0.191 ± 0.089 | -0.117 ± 0.11
13 | UUGCAGCAAUAUUACGUGAG | -0.139 ± 0.078 | -0.302 ± 0.099
14 | UUGCAGCAAUAUUACGUGGU | -2.14 ± 0.16 | -2.76 ± 0.28
15 | UUGCAGCAAUAUUACGUUUC | -3.59 ± 0.27 | -3.17 ± 0.34
16 | UUGGAGCAAUAUUACGACAG | -1.57 ± 0.15 | -1.23 ± 0.18
17 | UUGGAGCAAUAUUACGACCA | -3.12 ± 0.48 | -1.34 ± 0.35
18 | UUGGAGCAAUAUUACGAGUA |  | -2.45 ± 0.48
19 | UUGGAGCAAUAUUACGAUAU |  | -2.49 ± 0.32
20 | UUGGAGCAAUAUUACGCAUU | -1.87 ± 0.33 | 
21 | UUGGAGCAAUAUUACGCUCA | -1.16 ± 0.15 | -1.53 ± 0.24
22 | UUGGAGCAAUAUUACGGACC |  | -2.55 ± 0.33
23 | UUGGAGCAAUAUUACGGACG | -3.11 ± 0.32 | -1.04 ± 0.34
24 | UUGGAGCAAUAUUACGGCUA | -1.23 ± 0.26 | -1.21 ± 0.41
25 | UUGGAGCAAUAUUACGGCUU | -1.18 ± 0.46 | -2.15 ± 0.48
26 | UUGGAGCAAUAUUACGGGCC |  | -1.33 ± 0.42
27 | UUGGAGCAAUAUUACGGGGC | -3.04 ± 0.28 | -3.26 ± 0.47

Row | Sequence | self-splicing fitness (ln) (30 °C) | self-splicing fitness (ln) (37 °C)
28 | UUGGAGCAAUAUUACGGGGU | -4.02 ± 0.4 | -2.44 ± 0.33
29 | UUGGAGCAAUAUUACGGUUC | -2.38 ± 0.2 | -2.86 ± 0.3
30 | UUGGAGCAAUAUUACGUAAA | -2.9 ± 0.29 | -0.99 ± 0.25
31 | UUGGAGCAAUAUUACGUACA |  | 0.204 ± 0.28
32 | UUGGAGCAAUAUUACGUCAA | -2.19 ± 0.25 | -0.538 ± 0.19
33 | UUGGAGCAAUAUUACGUGUG | -3.71 ± 0.2 | -2.38 ± 0.14
34 | UUGGAGCAAUAUUACGUUAA | -2.09 ± 0.25 | -1.91 ± 0.25
35 | UUGGAGCAAUAUUACGUUCA | -2.45 ± 0.4 | -1 ± 0.31
36 | UUGGAGCAAUAUUACGUUGA | -3.57 ± 0.3 | -0.895 ± 0.26
37 | UUGGAGCAAUAUUACGUUGC |  | -1.44 ± 0.45
38 | UUGUAGCAAUAUUACGACCA | -0.463 ± 0.16 | -0.51 ± 0.17
39 | UUGUAGCAAUAUUACGAGGC | -3.07 ± 0.27 | -1.77 ± 0.31
40 | UUGUAGCAAUAUUACGAGUU | -3.22 ± 0.25 | -2.61 ± 0.26
41 | UUGUAGCAAUAUUACGCCCA | 0.762 ± 0.34 | -0.0943 ± 0.38
42 | UUGUAGCAAUAUUACGCGUA | -1.31 ± 0.18 | -0.742 ± 0.22
43 | UUGUAGCAAUAUUACGCGUG | -0.196 ± 0.079 | -0.498 ± 0.1
44 | UUGUAGCAAUAUUACGGAUU |  | -2 ± 0.34
45 | UUGUAGCAAUAUUACGGCAU | -0.835 ± 0.096 | 0.641 ± 0.11
46 | UUGUAGCAAUAUUACGGCCA | -0.782 ± 0.2 | 0.581 ± 0.28
47 | UUGUAGCAAUAUUACGGCUU | -1.41 ± 0.12 | 0.113 ± 0.14
48 | UUGUAGCAAUAUUACGGGAC | -0.759 ± 0.16 | -2.7 ± 0.36
49 | UUGUAGCAAUAUUACGGGGC | -3.56 ± 0.37 | -3.67 ± 0.46
50 | UUGUAGCAAUAUUACGUCCA | -0.4 ± 0.13 | -0.28 ± 0.14
51 | UUGUAGCAAUAUUACGUUCU | -2.42 ± 0.15 | -1.69 ± 0.2
52 | UUGUAGCAAUAUUACGUUGG | -2.77 ± 0.18 | -1.98 ± 0.21
53 | UUUAAGCAAUAUUACGAAAU | -2.95 ± 0.24 | -1.04 ± 0.19
54 | UUUAAGCAAUAUUACGAACG | -1.08 ± 0.18 | 0.0714 ± 0.21

Row | Sequence | self-splicing fitness (ln) (30 °C) | self-splicing fitness (ln) (37 °C)
55 | UUUAAGCAAUAUUACGAAGU |  | -1.62 ± 0.45
56 | UUUAAGCAAUAUUACGAAUA | -1.09 ± 0.21 | -0.334 ± 0.22
57 | UUUAAGCAAUAUUACGACAU | -1.45 ± 0.015 | -0.621 ± 0.034
58 | UUUAAGCAAUAUUACGACGC | -3.48 ± 0.2 | -0.476 ± 0.16
59 | UUUAAGCAAUAUUACGAGGG | -2.32 ± 0.19 | -1.57 ± 0.23
60 | UUUAAGCAAUAUUACGCACG | -0.565 ± 0.16 | -0.685 ± 0.22
61 | UUUAAGCAAUAUUACGCAUU | -2.05 ± 0.17 | -2.63 ± 0.24
62 | UUUAAGCAAUAUUACGCUCG | -0.577 ± 0.095 | 0.0454 ± 0.11
63 | UUUAAGCAAUAUUACGGGCA | -1.05 ± 0.12 | -0.851 ± 0.14
64 | UUUAAGCAAUAUUACGGGUG | -1.2 ± 0.13 | -0.234 ± 0.12
65 | UUUAAGCAAUAUUACGGUAA | -1.08 ± 0.12 | -1.01 ± 0.096
66 | UUUAAGCAAUAUUACGGUAG | -0.741 ± 0.17 | -0.971 ± 0.21
67 | UUUAAGCAAUAUUACGGUUA | -1.35 ± 0.12 | -0.505 ± 0.1
68 | UUUAAGCAAUAUUACGUAAA | -0.434 ± 0.1 | 0.519 ± 0.16
69 | UUUAAGCAAUAUUACGUCGA | -0.771 ± 0.092 | -0.225 ± 0.1
70 | UUUAAGCAAUAUUACGUCUA | -0.606 ± 0.085 | -0.214 ± 0.1
71 | UUUAAGCAAUAUUACGUGCC | -1.95 ± 0.21 | -0.891 ± 0.22
72 | UUUAAGCAAUAUUACGUUAU | -3.18 ± 0.2 | -2.16 ± 0.22
73 | UUUAAGCAAUAUUACGUUUG | -2.96 ± 0.19 | -1.42 ± 0.13
74 | UUUCAGCAAUAUUACGAAUA | -0.788 ± 0.15 | 0.446 ± 0.13
75 | UUUCAGCAAUAUUACGACAG | -0.245 ± 0.089 | 0.886 ± 0.15
76 | UUUCAGCAAUAUUACGACGC | -2.68 ± 0.24 | -1.67 ± 0.19
77 | UUUCAGCAAUAUUACGAUUC |  | -1.37 ± 0.41
78 | UUUCAGCAAUAUUACGCAAU | -2.36 ± 0.21 | -0.692 ± 0.23
79 | UUUCAGCAAUAUUACGCCAG | -1.4 ± 0.31 | -0.498 ± 0.24
